Results on 6 substances are retold here after publication PMC5444381.

Like-named read-outs stand apart in the source and are kept apart here.

Assay [1] deals with BaL.01 Env trimeric spikes on pseudotyped viruses (HIV-1 BaL.01).
Assay [2] has the same target. The source holds these as a separate data set.
Assay [3] shares this target. This is another data set of the same source.

On to DAVEI-L4(ΔMPER), for which the IC50 of inhibition of HIV-1 BaL.01 pseudovirus infection of HOS.T4.R5 cells in assay [1] turned out to be 1.4 nM.
Consider DAVEI-L4(ΔCRAC)-W7,9,15A, for which, in assay [2], the EC50 of virolysis (p24 release from HIV-1 BaL.01 pseudovirus, sandwich ELISA) amounted to 43.1 nM. The substance also registered an IC50 of inhibition of HIV-1 BaL.01 pseudovirus infection of HOS.T4.R5 cells in assay [3] of 0.36 nM.
The corresponding values for DAVEI-L4(ΔCRAC)-W3,7,9,15A are 122 nM and 0.78 nM.
Consider DAVEI-L4(ΔCRAC)W15A, for which, in assay [2], the EC50 of virolysis (p24 release from HIV-1 BaL.01 pseudovirus, sandwich ELISA) stood at 46.8 nM. The same substance registered an IC50 of inhibition of HIV-1 BaL.01 pseudovirus infection of HOS.T4.R5 cells in assay [3] of 0.4 nM.
Turning to DAVEI-L4(ΔCRAC)W9,15A, the EC50 of virolysis (p24 release from HIV-1 BaL.01 pseudovirus, sandwich ELISA) in assay [2] stood at 49.7 nM. In assay [3], the IC50 of inhibition of HIV-1 BaL.01 pseudovirus infection of HOS.T4.R5 cells stood at 0.45 nM.
In assay [1], DAVEI-L4(ΔCRAC) displayed an EC50 of virolysis (p24 release from HIV-1 BaL.01 pseudovirus, sandwich ELISA) of 28.3 nM and an IC50 of inhibition of HIV-1 BaL.01 pseudovirus infection of HOS.T4.R5 cells of 1.1 nM.
